Biological target: mitochondrial ATP synthase (ETC Complex V) ATPase in rat liver submitochondrial particles (SMP) (rat) (UniProt P15999)
Test: cell-based or functional assay

IC50 at pH 6.5, inhibition of oligomycin-sensitive ATPase in rat liver SMP: 0.19 µM | IC50 at pH 7.25, inhibition of oligomycin-sensitive ATPase in rat liver SMP: 0.42 µM | IC50 at pH 8, inhibition of oligomycin-sensitive ATPase in rat liver SMP: > 0.8 µM
Substance: rat IF1 (from UniProt Q03344 26-107)

From patent publication US20030026781A1, “Compositions and methods for regulating endogenous inhibitor of ATP synthase, including treatment for diabetes” (MitoKor, priority 1999, published 2003)
